The text below walks through data of the RNAGym collection of RNA variant scans (doi:10.1101/gr.219683.116).

To fix the notation:
B1: mRNA-splicing (parent)
chain: AGUUGCUGCUGGGAGCUCCAGCACAGUGAAAUGGACAGAAGGGCAGAGCAA

Variants of B1 are the subject of the series. Nature of the series: exon inclusion enrichment index; higher = more inclusion; WT1 exon 5 minigene, HEK293.
For the variant G5C C6U G8C C9U U10C A47U G48C, the “exon inclusion enrichment index” value was 1.37. Under G5C C6U G8C C9U U10C A37G G38C stands 2.08. Consider G5U C6U G8U C9U, for which the “exon inclusion enrichment index” value is 0.0204. In the case of C36A A37U, the “exon inclusion enrichment index” value was 0.0531. As for C6A U7A C9A U10A U17C, the “exon inclusion enrichment index” value was 0.424.

For C6A U7G C9A U10A, the “exon inclusion enrichment index” value is 0.108.

Consider U3A U4G G5A C6U U7A G8U C9A, for which the “exon inclusion enrichment index” value stood at 0.0692. As for G5A C6G U7C G8U C9A, the “exon inclusion enrichment index” value amounted to 0.0245.

With G5C C6A U7C G8A U10A G28A A29U, the “exon inclusion enrichment index” value was determined as 0.0236. For the variant G5C C6A U7A C9A U10A, the “exon inclusion enrichment index” value worked out at 0.906. For G2U, the “exon inclusion enrichment index” value amounted to 0.476.

Take U3A U4G G5A U7C G8A U10C: the “exon inclusion enrichment index” value was 3.06.

Consider A39U A40U, for which the “exon inclusion enrichment index” value was 0.0388.

For the variant C6A U7C C9A U10G, the “exon inclusion enrichment index” value is 0.756.

Take C6A U7C C9A U10C A25C G26A: the “exon inclusion enrichment index” value amounted to 4.93. As for G46A A47U, the “exon inclusion enrichment index” value came to 0.185.

On to G5C C6G U7C U10C U32A G33A, for which the “exon inclusion enrichment index” value worked out at 2. As for C6A U7A C9A U10A A37G G38U, the “exon inclusion enrichment index” value is 0.29. Under G5C C6G U7C U10C U32C G33C stands 3.68; under G5C C6G U7C U10C U32C G33A, 2.09. Consider G5A C6G U7G C9A G21U C22G, for which the “exon inclusion enrichment index” value came out at 0.000869. Take C6A U7A C9A U10A G13C A14G: the “exon inclusion enrichment index” value turned out to be 1.42.

Turning to G5C C6G U7C U10C C16G, the “exon inclusion enrichment index” value is 2.97. For G5C C6U G8C C9U U10C G26A U27G, the “exon inclusion enrichment index” value turned out to be 2.81.

In the case of G5C C6U G8C C9U U10C A35C, the “exon inclusion enrichment index” value stood at 0.541. Turning to U3C U4C G5U G8U C9U, the “exon inclusion enrichment index” value came out at 0.335. Consider G5C C6G U7C U10C A40C G41U, for which the “exon inclusion enrichment index” value was 1.83. For the variant C6A U7C C9A U10C G15A, the “exon inclusion enrichment index” value was 3.34. As for G41C G42U, the “exon inclusion enrichment index” value is 0.907. G5A C6G U7G C9A G42U: the “exon inclusion enrichment index” value was determined as 0.00622. A20G: the “exon inclusion enrichment index” value was determined as 1.58.

With G5U G8U C9U G38U A39U, the “exon inclusion enrichment index” value worked out at 0.00101. In the case of C6A U7C C9A U10C A47U, the “exon inclusion enrichment index” value was 2.86. Turning to G5C C6A U7C G8A U10A C19A, the “exon inclusion enrichment index” value came to 0.0348. With U7C C9A U10C, the “exon inclusion enrichment index” value was determined as 3.46. For C6A U7C C9A U10C G33C G34C, the “exon inclusion enrichment index” value turned out to be 2.01. In the case of G5C C6U G8C C9U U10C U17A C18A, the “exon inclusion enrichment index” value was found to be 1.32. As for G5A C6G U7G C9A G38U A39C, the figure is 0.000723; as for G5C C6U G8C C9U U10C G34A, 1.17; as for C6A U7A C9A U10A A23C C24U, 0.243.

Consider C6A U7C C9A U10C A31U U32C, for which the “exon inclusion enrichment index” value came to 3.74. Turning to G5U G8U C9U A31U U32A, the “exon inclusion enrichment index” value is 0.00567. C6A U7C G8C C9U U10C: the “exon inclusion enrichment index” value turned out to be 2.28. Under C6A U7C C9A U10C G21A C22U stands 2.22; under G5U G8U C9U C18U, 0.0536; under G5C C6A U7C G8A U10A G21U, 0.0631. Under G5C C6G G8U U10C stands 2.67; under G5C C6A U7C G8A U10A C24A A25G, 0.156. In the case of U7C G8A U10A, the “exon inclusion enrichment index” value amounted to 0.437. As for G5A U7C G8A U10C U32G G33A, the “exon inclusion enrichment index” value stood at 0.707. For the variant G5U G8U C9U G34A A35G, the “exon inclusion enrichment index” value came to 0.0238. Take G5A C6U U7A G8U C9A A14U G15A: the “exon inclusion enrichment index” value was 0.0025. Under G5A C6U U7A G8U C9A A14U G15C stands 0.00818; under G5U G8U C9U A45G G46A, 0.672.

Turning to A31G U32A, the “exon inclusion enrichment index” value was found to be 1.08.

As to G5C C6A U7C G8A U10A, the “exon inclusion enrichment index” value came to 0.12.

Consider G5A U7C G8A U10C A25G G26C, for which the “exon inclusion enrichment index” value turned out to be 3.84.

Regarding C6A U7C G8A U10C, the “exon inclusion enrichment index” value was determined as 2.3.

Take C6A U7C G8A U10A: the “exon inclusion enrichment index” value was found to be 0.127. Take C6A U7A C9A U10A G38A A39C: the “exon inclusion enrichment index” value was found to be 0.579. With C6A U7C C9A U10C A31G, the “exon inclusion enrichment index” value came out at 3.73. For the variant G5A C6G U7G C9A G41U G42U, the “exon inclusion enrichment index” value was determined as 0.00223. Regarding G5A U7C G8A U10C C36G A37C, the “exon inclusion enrichment index” value came to 0.667. For G5A C6U U7A G8U C9A A20U G21C, the “exon inclusion enrichment index” value came out at 0.0614. Turning to G5U G8A C9A, the “exon inclusion enrichment index” value came out at 0.204. As for G5A C6U U7A G8U C9U, the figure is 0.0721; as for G5A C6G U7G C9A A47G G48U, 0.000624. Regarding G5A C6U U7A G8U C9A C18G C19U, the “exon inclusion enrichment index” value was 0.00519. As for U3A G5C C6U G8C C9U U10C, the figure is 2.74; as for G5C C6U G8C C9U U10C G13A, 2.18. Regarding G5C C6U G8C C9U U10C G13U, the “exon inclusion enrichment index” value worked out at 0.0883. Take G5C C6U G8C C9U U10C G48U: the “exon inclusion enrichment index” value was 2.26. On to G5C C6U G8C C9U U10C G11A G12A, for which the “exon inclusion enrichment index” value was determined as 0.685. In the case of U3G U4C G5A U7C G8A U10C, the “exon inclusion enrichment index” value was 2.37. As to G5U G8U C9U A29C A30G, the “exon inclusion enrichment index” value worked out at 0.414. For G5C C6A U7C G8A U10A A35G, the “exon inclusion enrichment index” value was 0.0247.

Consider G5C C6G U7C U10C G26U U27G, for which the “exon inclusion enrichment index” value is 3.98.

Consider G5C C6U G8C C9U U10C G15U C16U, for which the “exon inclusion enrichment index” value came to 1.32. As for G5C C6A U7C G8A U10A G46C A47U, the figure is 0.141; as for C6A U7C C9A U10C C19G A20U, 3.25. Take G5C C6A U7C G8A U10A G26U: the “exon inclusion enrichment index” value turned out to be 0.091. Take G5C C6A U7C G8A U10A G26A: the “exon inclusion enrichment index” value stood at 0.156. Take G5A C6U U7A G8U C9A U10G G11C: the “exon inclusion enrichment index” value stood at 0.022.
